Stoichiometry N data for one substance are collected here from publication PMC6282176.

The target of the assay is C-terminally truncated fragment of DdSkp1 (residues 1–122) (Dictyostelium discoideum) (UniProt P52285). Briefly: AUC.

Consider “C-terminally truncated fragment of DdSkp1 (residues 1–122) (from UniProt P52285 1-122) (domain or fragment)”, for which the stoichiometry N (usually the number of molecules, sites or subunits per partner or assembly) came to 2.
